From IntAct's records for PubMed 26188084 come the findings set out here.

The chains are these.
B1: SCL-interrupting locus protein (Homo sapiens), Q15468 (parent)
chain: MEPIYPFARPQMNTRFPSSRMVPFHFPPSKCALWNPTPTGDFIYLHLSYYRNPKLVVTEKTIRLAYRHAKQNKKNSSCFLLGSLTADEDEEGVTLTVDRFDPGREVPECLEITPTASLPGDFLIPCKVHTQELCSREMIVHSVDDFSSALKALQCHICSKDSLDCGKLLSLRVHITSRESLDSVEFDLHWAAVTLANNFKCTPVKPIPIIPTALARNLSSNLNISQVQGTYKYGYLTMDETRKLLLLLESDPKVYSLPLVGIWLSGITHIYSPQVWACCLRYIFNSSVQERVFSESGNFIIVLYSMTHKEPEFYECFPCDGKIPDFRFQLLTSKETLHLFKNVEPPDKNPIRCELSAESQNAETEFFSKASKNFSIKRSSQKLSSGKMPIHDHDSGVEDEDFSPRPIPSPHPVSQKISKIQPSVPELSLVLDGNFIESNPLPTPLEMVNNENPPLINHLEHLKPLQPQLYDEKHSPEVEAGEPSLRGIPNQLNQDKPALLRHCKVRQPPAYKKGNPHTRNSIKPSSHNGPSHDIFEKLQTVSAGNVQNEEYPIRPSTLNSRQSSLAPQSQPHDFVFSPHNSGRPMELQIPTPPLPSYCSTNVCRCCQHHSHIQYSPLNSWQGANTVGSIQDVQSEALQKHSLFHPSGCPALYCNAFCSSSSPIALRPQGDMGSCSPHSNIEPSPVARPPSHMDLCNPQPCTVCMHTPKTESDNGMMGLSPDAYRFLTEQDRQLRLLQAQIQRLLEAQSLMPCSPKTTAVEDTVQAGRQMELVSVEAQSSPGLHMRKGVSIAVSTGASLFWNAAGEDQEPDSQMKQDDTKISSEDMNFSVDINNEVTSLPGSASSLKAVDIPSFEESNIAVEEEFNQPLSVSNSSLVVRKEPDVPVFFPSGQLAESVSMCLQTGPTGGASNNSETSEEPKIEHVMQPLLHQPSDNQKIYQDLLGQVNHLLNSSSKETEQPSTKAVIISHECTRTQNVYHTKKKTHHSRLVDKDCVLNATLKQLRSLGVKIDSPTKVKKNAHNVDHASVLACISPEAVISGLNCMSFANVGMSGLSPNGVDLSMEANAIALKYLNENQLSQLSVTRSNQNNCDPFSLLHINTDRSTVGLSLISPNNMSFATKKYMKRYGLLQSSDNSEDEEEPPDNADSKSEYLLNQNLRSIPEQLGGQKEPSKNDHEIINCSNCESVGTNADTPVLRNITNEVLQTKAKQQLTEKPAFLVKNLKPSPAVNLRTGKAEFTQHPEKENEGDITIFPESLQPSETLKQMNSMNSVGTFLDVKRLRQLPKLF
partner: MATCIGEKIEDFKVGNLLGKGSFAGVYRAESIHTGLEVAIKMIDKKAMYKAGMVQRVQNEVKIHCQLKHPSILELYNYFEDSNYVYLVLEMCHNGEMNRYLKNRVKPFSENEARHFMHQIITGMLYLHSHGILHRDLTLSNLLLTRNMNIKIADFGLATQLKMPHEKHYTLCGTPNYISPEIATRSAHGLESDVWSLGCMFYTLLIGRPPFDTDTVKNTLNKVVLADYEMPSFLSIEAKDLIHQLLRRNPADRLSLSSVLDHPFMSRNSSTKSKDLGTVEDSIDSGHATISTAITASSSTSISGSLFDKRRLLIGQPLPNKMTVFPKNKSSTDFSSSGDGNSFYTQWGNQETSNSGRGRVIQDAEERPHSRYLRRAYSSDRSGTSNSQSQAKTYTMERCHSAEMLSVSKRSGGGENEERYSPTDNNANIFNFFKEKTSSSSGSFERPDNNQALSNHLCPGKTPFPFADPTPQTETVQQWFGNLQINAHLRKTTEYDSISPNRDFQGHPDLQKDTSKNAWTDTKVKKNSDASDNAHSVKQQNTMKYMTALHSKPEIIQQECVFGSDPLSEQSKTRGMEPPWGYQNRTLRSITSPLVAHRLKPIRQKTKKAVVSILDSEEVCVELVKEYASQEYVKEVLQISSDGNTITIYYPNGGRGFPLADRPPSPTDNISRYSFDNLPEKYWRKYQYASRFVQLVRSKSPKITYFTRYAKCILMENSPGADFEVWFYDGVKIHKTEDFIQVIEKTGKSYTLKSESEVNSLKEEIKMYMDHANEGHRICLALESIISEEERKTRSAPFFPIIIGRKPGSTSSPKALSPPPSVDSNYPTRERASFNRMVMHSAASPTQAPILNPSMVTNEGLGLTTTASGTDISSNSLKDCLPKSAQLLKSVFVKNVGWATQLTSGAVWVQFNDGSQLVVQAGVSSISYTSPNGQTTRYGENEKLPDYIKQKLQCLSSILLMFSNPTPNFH
B2: Serine/threonine-protein kinase PLK4 (Homo sapiens), O00444 (parent)
chain: B1 partner
partner: B1 chain

One assay covers variants of B1. Conditions: with plk4_human PLK4, O00444.
As to L733D;I740K;L743D, the “effect of a mutation on the interaction” value is “with no effect”.

As for L733D;L736E;I740K;L743D, the “effect of a mutation on the interaction” value is on record as “with no effect”.

Consider L733E;I740E;L743E, for which the “effect of a mutation on the interaction” value is given as “with no effect”.

On to L733Y;L743Y, for which the “effect of a mutation on the interaction” value is given as “with no effect”.

On to L733D;L736E;L743D, for which the “effect of a mutation on the interaction” value was “with no effect”.

As to Q737K;Q739E, the “effect of a mutation on the interaction” value was “decreasing interaction strength”.

Regarding L733D;L743D, the “effect of a mutation on the interaction” value was “decreasing interaction strength”.

Another assay covers variants of B2. Particulars: with stil_human STIL.
Take S285A;T289A: the “effect of a mutation on the interaction” value is reported as “with no effect”.
